Substitutions are numbered along the chain they refer to. Read-outs that look alike come from different tables or passages of the source.
T1: human PAC1 receptor (human, UniProt P41586 21-468)
T1 sequence: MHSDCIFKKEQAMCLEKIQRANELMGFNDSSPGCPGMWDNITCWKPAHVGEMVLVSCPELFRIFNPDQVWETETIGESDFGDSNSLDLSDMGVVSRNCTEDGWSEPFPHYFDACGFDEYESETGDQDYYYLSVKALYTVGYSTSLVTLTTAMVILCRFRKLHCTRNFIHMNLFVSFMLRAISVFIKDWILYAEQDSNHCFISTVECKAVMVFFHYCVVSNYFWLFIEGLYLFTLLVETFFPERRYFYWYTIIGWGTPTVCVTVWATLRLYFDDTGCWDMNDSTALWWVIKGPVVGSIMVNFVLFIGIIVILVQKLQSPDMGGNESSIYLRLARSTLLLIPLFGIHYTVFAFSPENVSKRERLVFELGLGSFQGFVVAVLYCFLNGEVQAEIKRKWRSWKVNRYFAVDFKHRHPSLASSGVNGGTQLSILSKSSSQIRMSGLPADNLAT

B1: iPS:386715 (bispecific antibody, human IgG1, lambda, N297G)
light: QSVLTQPPSVSAAPGQKVTISCSGSSSNIGNNYVSWYQQLPGTAPKLLIYDNNKRPSGIPDRFSGSKSGTSTTLGITGLQTGDEADYYCGTWDSRLSAVVFGGGTKLTVLGQPKANPTVTLFPPSSEELQANKATLVCLISDFYPGAVTVAWKADGSPVKAGVETTKPSKQSNNKYAASSYLSLTPEQWKSHRSYSCQVTHEGSTVEKTVAPTECS
heavy: not shown
B2: iPS:392526 (bispecific antibody, human IgG1, kappa, lambda, N297G)
light: B1 light with S179K
heavy: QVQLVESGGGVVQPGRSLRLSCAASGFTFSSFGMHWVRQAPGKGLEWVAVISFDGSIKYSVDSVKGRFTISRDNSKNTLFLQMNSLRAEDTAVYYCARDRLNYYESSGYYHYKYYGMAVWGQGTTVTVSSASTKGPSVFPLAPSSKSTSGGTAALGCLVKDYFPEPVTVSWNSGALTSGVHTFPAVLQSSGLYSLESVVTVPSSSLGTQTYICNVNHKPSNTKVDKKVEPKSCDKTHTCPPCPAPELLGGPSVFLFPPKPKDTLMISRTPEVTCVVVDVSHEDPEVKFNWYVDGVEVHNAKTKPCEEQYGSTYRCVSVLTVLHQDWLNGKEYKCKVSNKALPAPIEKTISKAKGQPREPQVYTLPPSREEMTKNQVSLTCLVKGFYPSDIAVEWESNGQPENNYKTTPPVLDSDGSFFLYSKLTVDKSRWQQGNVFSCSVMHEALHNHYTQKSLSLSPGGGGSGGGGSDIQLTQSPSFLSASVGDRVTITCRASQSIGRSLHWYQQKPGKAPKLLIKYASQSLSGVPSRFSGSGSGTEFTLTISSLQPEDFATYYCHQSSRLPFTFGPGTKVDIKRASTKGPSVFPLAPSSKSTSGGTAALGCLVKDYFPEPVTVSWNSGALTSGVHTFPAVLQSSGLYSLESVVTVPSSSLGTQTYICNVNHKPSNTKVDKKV
chain: QVQLVESGAEVVKPGASVKVSCKASGFTFSRFAMHWVRQAPGQGLEWMGVISYDGGNKYYAESVKGRVTMTRDTSTSTLYMELSSLRSEDTAVYYCARGYDVLTGYPDYWGQGTLVTVSSTVAAPSVFIFPPSDEQLKSGTASVVCLLNNFYPREAKVQWKVDNALQSGNSQESVTEQDSKDSTYSLKSTLTLSKADYEKHKVYACEVTHQGLSSPVTKSFNRGEC
B3: iPS:392527 (bispecific antibody, human IgG1, kappa, lambda, N297G)
light: B1 light with S179K
heavy: not shown
chain: B2 chain with Q39K
B4: iPS:386717 (bispecific antibody, human IgG1, lambda, N297G)
light: B1 light
heavy: not shown
B5: iPS:386721 (bispecific antibody, human IgG1, lambda, N297G)
light: B1 light with T72A, G75A
heavy: not shown
B6: iPS:392524 (bispecific antibody, human IgG1, kappa, lambda, N297G)
light: B1 light with S179K
heavy: not shown
chain: B2 chain
B7: iPS:386719 (bispecific antibody, human IgG1, lambda, N297G)
light: B1 light with T72A
heavy: not shown
B8: iPS:386723 (bispecific antibody, human IgG1, lambda, N297G)
light: B1 light with T72A
heavy: not shown
B9: iPS:392525 (bispecific antibody, human IgG1, kappa, lambda, N297G)
light: B1 light with S179K
heavy: not shown
chain: B2 chain with Q39K
B10: iPS:386754 (bispecific antibody, human IgG1, kappa, N297G)
light: DIQLTQSPSFLSASVGDRVTITCRASQSIGRSLHWYQQKPGKAPKLLIKYASQSLSGVPSRFSGSGSGTEFTLTISSLQPEDFATYYCHQSSRLPFTFGPGTKVDIKRTVAAPSVFIFPPSDEQLKSGTASVVCLLNNFYPREAKVQWKVDNALQSGNSQESVTEQDSKDSTYSLSSTLTLSKADYEKHKVYACEVTHQGLSSPVTKSFNRGEC
heavy: not shown
B11: iPS:392475 (bispecific antibody, human IgG1, kappa, lambda, N297G)
light: B10 light with S176E
heavy: not shown
chain: QVQLVESGGGVVQPGRSLRLSCAASGFTFSSFGMHWVRQAPGKGLEWVAVISFDGSIKYSVDSVKGRFTISRDNSKNTLFLQMNSLRAEDTAVYYCARDRLNYYESSGYYHYKYYGMAVWGQGTTVTVSSGQPKANPTVTLFPPSSEELQANKATLVCLISDFYPGAVTVAWKADGSPVKAGVETTKPSKQSNNKYAAESYLSLTPEQWKSHRSYSCQVTHEGSTVEKTVAPTECS
B12: iPS:386764 (bispecific antibody, human IgG1, kappa, N297G)
light: B10 light
heavy: not shown
B13: iPS:392514 (bispecific antibody, human IgG1, kappa, lambda, N297G)
light: B10 light with S176E
heavy: not shown
chain: B11 chain with Q39E, E105D
B14: iPS:386760 (bispecific antibody, human IgG1, kappa, N297G)
light: B10 light
heavy: not shown
B15: iPS:392513 (bispecific antibody, human IgG1, kappa, lambda, N297G)
light: B10 light with S176E
heavy: not shown
chain: B11 chain with E105D
B16: iPS:386758 (bispecific antibody, human IgG1, kappa, N297G)
light: B10 light
heavy: not shown
B17: iPS:392517 (bispecific antibody, human IgG1, kappa, lambda, N297G)
light: B10 light with Q38E, S176E
heavy: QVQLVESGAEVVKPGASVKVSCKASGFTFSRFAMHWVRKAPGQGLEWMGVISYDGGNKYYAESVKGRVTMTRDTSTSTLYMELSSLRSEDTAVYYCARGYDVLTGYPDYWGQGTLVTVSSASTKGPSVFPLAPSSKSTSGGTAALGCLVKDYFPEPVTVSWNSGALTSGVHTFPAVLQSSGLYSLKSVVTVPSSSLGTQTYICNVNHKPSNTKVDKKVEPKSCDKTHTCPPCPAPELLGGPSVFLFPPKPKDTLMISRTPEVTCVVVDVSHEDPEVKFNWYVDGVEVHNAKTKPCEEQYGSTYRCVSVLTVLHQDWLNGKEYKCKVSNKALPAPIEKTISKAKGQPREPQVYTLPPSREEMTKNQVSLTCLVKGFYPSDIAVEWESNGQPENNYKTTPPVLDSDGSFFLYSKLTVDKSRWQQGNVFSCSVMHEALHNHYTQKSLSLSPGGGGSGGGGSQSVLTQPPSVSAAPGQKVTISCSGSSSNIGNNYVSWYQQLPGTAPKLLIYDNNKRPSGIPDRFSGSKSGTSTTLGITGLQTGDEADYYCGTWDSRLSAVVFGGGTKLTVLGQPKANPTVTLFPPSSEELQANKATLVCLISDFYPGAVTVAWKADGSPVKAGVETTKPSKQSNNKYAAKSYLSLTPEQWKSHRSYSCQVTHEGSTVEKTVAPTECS
chain: QVQLVESGGGVVQPGRSLRLSCAASGFTFSSFGMHWVRQAPGKGLEWVAVISFDGSIKYSVDSVKGRFTISRDNSKNTLFLQMNSLRAEDTAVYYCARDRLNYYDSSGYYHYKYYGMAVWGQGTTVTVSSASTKGPSVFPLAPSSKSTSGGTAALGCLVKDYFPEPVTVSWNSGALTSGVHTFPAVLQSSGLYSLESVVTVPSSSLGTQTYICNVNHKPSNTKVDKKV
B18: iPS:392522 (bispecific antibody, human IgG1, kappa, lambda, N297G)
light: B10 light with Q38E, S176E
heavy: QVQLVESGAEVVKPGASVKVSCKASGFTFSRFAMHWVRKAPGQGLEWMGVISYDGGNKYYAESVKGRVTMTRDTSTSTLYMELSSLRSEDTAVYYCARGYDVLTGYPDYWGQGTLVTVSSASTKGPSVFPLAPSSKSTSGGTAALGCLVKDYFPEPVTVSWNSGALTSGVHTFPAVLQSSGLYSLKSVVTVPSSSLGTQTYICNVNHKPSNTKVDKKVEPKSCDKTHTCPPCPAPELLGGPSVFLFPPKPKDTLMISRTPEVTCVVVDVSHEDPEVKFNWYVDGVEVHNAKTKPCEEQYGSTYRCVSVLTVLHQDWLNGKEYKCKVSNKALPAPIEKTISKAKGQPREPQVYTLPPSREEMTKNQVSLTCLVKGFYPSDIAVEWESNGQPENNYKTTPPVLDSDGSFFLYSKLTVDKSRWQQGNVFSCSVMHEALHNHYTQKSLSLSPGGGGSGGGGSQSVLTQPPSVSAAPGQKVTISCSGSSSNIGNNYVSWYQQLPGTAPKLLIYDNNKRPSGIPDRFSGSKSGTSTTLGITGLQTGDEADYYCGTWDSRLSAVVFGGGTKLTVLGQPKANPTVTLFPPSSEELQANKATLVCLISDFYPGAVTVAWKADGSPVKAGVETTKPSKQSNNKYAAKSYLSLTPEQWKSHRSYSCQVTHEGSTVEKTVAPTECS
chain: B17 chain with D105E
B19: iPS:386756 (bispecific antibody, human IgG1, kappa, N297G)
light: B10 light
heavy: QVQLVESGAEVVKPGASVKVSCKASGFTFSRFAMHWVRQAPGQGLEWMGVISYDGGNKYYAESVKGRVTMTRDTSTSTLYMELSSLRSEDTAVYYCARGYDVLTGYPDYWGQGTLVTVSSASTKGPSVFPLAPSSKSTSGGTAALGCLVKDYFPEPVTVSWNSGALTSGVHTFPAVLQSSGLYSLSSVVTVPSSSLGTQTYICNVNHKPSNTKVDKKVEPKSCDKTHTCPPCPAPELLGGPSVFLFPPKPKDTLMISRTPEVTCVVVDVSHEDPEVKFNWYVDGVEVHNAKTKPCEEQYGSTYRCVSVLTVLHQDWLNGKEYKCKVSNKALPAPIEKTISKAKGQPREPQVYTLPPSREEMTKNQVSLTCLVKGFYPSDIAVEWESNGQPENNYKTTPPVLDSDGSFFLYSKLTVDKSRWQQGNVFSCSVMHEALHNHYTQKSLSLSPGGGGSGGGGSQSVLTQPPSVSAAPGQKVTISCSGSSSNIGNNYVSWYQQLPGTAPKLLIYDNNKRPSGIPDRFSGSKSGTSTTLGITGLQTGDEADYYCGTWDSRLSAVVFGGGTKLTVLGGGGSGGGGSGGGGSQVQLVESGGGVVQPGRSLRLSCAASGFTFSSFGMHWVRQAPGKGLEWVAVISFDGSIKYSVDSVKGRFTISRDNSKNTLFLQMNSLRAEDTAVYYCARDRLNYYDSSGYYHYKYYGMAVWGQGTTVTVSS
B20: iPS:392523 (bispecific antibody, human IgG1, kappa, lambda, N297G)
light: B10 light with Q38E, S176E
heavy: not shown
chain: B17 chain with Q39E, D105E
B21: iPS:392520 (bispecific antibody, human IgG1, kappa, lambda, N297G)
light: B10 light with S176E
heavy: not shown
chain: B17 chain with D105E
B22: iPS:392519 (bispecific antibody, human IgG1, kappa, lambda, N297G)
light: B10 light with S176E
heavy: not shown
chain: B11 chain with Q39E
B23: iPS:392516 (bispecific antibody, human IgG1, kappa, lambda, N297G)
light: B10 light with S176E
heavy: not shown
chain: B17 chain with Q39E
B24: iPS:392521 (bispecific antibody, human IgG1, kappa, lambda, N297G)
light: B10 light with S176E
heavy: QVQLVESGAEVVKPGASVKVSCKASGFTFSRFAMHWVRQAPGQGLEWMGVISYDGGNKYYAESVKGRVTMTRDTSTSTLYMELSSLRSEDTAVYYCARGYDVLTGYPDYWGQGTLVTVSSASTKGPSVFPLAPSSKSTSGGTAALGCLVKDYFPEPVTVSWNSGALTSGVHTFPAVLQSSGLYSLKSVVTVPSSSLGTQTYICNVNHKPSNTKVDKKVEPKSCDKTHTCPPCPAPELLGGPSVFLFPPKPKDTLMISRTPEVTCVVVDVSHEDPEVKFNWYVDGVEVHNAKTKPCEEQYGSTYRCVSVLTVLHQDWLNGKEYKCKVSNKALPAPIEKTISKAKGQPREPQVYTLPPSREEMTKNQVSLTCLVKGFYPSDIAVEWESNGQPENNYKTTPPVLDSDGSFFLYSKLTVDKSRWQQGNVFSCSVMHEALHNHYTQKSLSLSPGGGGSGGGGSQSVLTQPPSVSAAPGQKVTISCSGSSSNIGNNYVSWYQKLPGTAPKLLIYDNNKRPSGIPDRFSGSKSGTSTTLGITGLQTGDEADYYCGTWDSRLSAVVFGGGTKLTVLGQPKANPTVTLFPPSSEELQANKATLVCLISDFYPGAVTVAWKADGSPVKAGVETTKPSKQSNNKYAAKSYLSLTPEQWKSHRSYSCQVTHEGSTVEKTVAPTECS
chain: B17 chain with Q39E, D105E
B25: iPS:392515 (bispecific antibody, human IgG1, kappa, lambda, N297G)
light: B10 light with S176E
heavy: not shown
chain: B17 chain
B26: iPS:386762 (bispecific antibody, human IgG1, kappa, N297G)
light: B10 light
heavy: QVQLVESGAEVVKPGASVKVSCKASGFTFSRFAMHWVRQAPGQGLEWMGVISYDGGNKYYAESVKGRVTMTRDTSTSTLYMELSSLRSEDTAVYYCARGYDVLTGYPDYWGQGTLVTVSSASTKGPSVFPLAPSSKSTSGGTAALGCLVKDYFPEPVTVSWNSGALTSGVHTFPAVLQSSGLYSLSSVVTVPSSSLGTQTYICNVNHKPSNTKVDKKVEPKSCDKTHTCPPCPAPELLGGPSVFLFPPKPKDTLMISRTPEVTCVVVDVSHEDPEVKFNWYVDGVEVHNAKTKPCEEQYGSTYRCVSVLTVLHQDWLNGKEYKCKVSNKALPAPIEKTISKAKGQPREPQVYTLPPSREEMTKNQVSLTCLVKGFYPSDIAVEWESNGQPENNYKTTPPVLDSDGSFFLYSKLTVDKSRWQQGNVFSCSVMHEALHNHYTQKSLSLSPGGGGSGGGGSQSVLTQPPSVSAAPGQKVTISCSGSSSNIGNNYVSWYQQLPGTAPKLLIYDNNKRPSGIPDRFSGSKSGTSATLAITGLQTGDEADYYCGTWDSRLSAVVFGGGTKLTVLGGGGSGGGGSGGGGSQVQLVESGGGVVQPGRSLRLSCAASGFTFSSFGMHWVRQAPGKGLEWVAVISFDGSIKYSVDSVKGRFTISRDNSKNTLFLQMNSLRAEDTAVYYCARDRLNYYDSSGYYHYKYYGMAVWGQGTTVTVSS
B27: iPS:392518 (bispecific antibody, human IgG1, kappa, lambda, N297G)
light: B10 light with Q38E, S176E
heavy: not shown
chain: B17 chain with Q39E

What was measured:
Experiment in all cases: cell-based or functional assay
human CGRP receptor [1] = biological target: T2, human CGRP receptor (human, UniProt Q16602 23-461; O60894 27-148)
human PAC1 receptor [2] = biological target: T1, human PAC1 receptor
human CGRP receptor [3] = biological target: T2, human CGRP receptor; remark: listed apart in the source
human PAC1 receptor [4] = biological target: T1, human PAC1 receptor; remark: listed apart in the source

T2 sequence (Q16602 23-461 limits assumed, chain 1 of 2): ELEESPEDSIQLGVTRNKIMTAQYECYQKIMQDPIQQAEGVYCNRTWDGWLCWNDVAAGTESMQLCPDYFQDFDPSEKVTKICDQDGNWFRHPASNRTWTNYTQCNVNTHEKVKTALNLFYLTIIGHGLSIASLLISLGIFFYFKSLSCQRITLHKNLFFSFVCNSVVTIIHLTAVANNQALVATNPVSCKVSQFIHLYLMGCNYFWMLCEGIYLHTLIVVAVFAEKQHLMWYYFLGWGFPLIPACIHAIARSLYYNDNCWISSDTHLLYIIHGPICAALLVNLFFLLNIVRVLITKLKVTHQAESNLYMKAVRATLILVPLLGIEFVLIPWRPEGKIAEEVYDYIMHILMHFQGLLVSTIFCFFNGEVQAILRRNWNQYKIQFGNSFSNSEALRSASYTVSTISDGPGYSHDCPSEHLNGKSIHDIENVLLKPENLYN
T2 sequence (O60894 27-148 limits assumed, chain 2 of 2): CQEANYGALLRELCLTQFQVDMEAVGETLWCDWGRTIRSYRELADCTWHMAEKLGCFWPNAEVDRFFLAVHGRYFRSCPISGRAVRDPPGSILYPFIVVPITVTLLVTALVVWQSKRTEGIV

Binder	Human CGRP Receptor IC50 (human CGRP receptor [1]) [nM]	Human PAC1 Receptor IC50 (human PAC1 receptor [2]) [nM]	Human CGRP Receptor IC50 (human CGRP receptor [3]) [nM]	Human PAC1 Receptor IC50 (human PAC1 receptor [4]) [nM]	also measured
B1	0.43	689	–	–	–
B2	–	–	0.71	116	–
B3	–	–	0.42	16.4	–
B4	0.33	580	–	–	–
B5	0.22	197	–	–	–
B6	–	–	0.86	81.2	–
B7	0.41	940	–	–	–
B8	0.27	248	–	–	–
B9	–	–	1.22	37.1	–
B10	0.54	5.74	–	–	–
B11	–	–	20.4	4.78	–
B12	2.61	11.9	–	–	–
B13	–	–	54	4.69	–
B14	2.11	4.67	–	–	–
B15	–	–	60.2	2.7	–
B16	2.32	4.11	–	–	–
B17	–	–	–	–	Human CGRP Receptor IC50 (nM), lot #1 (human CGRP receptor [3]): 10.9 nM; Human CGRP Receptor IC50 (nM), lot #2 (human CGRP receptor [3]): 11.5 nM; Human PAC1 Receptor IC50 (nM), lot #1 (human PAC1 receptor [4]): 2.48 nM; Human PAC1 Receptor IC50 (nM), lot #2 (human PAC1 receptor [4]): 7.75 nM
B18	–	–	–	–	Human CGRP Receptor IC50 (nM), lot #1 (human CGRP receptor [3]): 8.8 nM; Human CGRP Receptor IC50 (nM), lot #2 (human CGRP receptor [3]): 7.58 nM; Human PAC1 Receptor IC50 (nM), lot #1 (human PAC1 receptor [4]): 9.32 nM; Human PAC1 Receptor IC50 (nM), lot #2 (human PAC1 receptor [4]): 3.29 nM
B19	1.88	7.29	–	–	–
B20	–	–	20.4	5.03	–
B21	–	–	10.5	6.28	–
B22	–	–	81.3	6.87	–
B23	–	–	27.9	9.3	–
B24	–	–	18.8	6.88	–
B25	–	–	12.9	2.66	–
B26	2.8	3.55	–	–	–
B27	–	–	17.8	3.4	–
